These results are taken from article PMC11379886, “Insights into phosphoethanolamine cellulose synthesis and secretion across the Gram-negative cell envelope” (Nature Communications, 2024).

The chains are these.
T1: Escherichia coli BcsB (residues 55–779), as it stands in the BcsB-BcsC fusion (Escherichia coli, UniProt P37652 55-779)
T1 construct: E. coli BcsB, residues 55-779; Joined on one chain with Strep-tag II, BcsC 21-179 and a GSGSGS linker at its N-terminus (molecule m11); written apart for the BcsB-BcsC pair of the structure; source: E. coli C43, as part of the BcsB-BcsC fusion chain, co-purified with the Bcs complex
T1 sequence (looked up): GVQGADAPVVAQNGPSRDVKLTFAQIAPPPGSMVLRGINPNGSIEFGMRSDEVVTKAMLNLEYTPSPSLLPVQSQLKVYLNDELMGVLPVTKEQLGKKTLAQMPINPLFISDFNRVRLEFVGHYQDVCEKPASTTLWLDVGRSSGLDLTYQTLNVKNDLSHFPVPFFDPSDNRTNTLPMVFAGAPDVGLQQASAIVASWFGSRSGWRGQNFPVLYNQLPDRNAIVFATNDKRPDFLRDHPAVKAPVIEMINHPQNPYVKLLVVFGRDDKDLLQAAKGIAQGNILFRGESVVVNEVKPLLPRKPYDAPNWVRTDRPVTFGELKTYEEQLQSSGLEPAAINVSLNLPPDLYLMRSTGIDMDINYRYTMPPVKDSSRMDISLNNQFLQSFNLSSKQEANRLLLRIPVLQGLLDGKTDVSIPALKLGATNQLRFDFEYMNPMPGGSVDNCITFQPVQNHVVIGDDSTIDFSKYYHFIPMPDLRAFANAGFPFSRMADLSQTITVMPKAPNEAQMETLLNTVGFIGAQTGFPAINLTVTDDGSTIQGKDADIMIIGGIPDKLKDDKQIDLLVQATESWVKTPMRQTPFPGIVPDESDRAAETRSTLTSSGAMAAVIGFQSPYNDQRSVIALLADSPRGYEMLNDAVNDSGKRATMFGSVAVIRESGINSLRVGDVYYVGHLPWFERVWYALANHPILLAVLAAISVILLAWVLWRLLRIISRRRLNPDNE

B1: Escherichia coli BcsB (natural protein)
chain: TPATQPLINAEPAVAAQTEQNPQVGQVMPGVQGADAPVVAQNGPSRDVKLTFAQIAPPPGSMVLRGINPNGSIEFGMRSDEVVTKAMLNLEYTPSPSLLPVQSQLKVYLNDELMGVLPVTKEQLGKKTLAQMPINPLFISDFNRVRLEFVGHYQDVCEKPASTTLWLDVGRSSGLDLTYQTLNVKNDLSHFPVPFFDPSDNRTNTLPMVFAGAPDVGLQQASAIVASWFGSRSGWRGQNFPVLYNQLPDRNAIVFATNDKRPDFLRDHPAVKAPVIEMINHPQNPYVKLLVVFGRDDKDLLQAAKGIAQGNILFRGESVVVNEVKPLLPRKPYDAPNWVRTDRPVTFGELKTYEEQLQSSGLEPAAINVSLNLPPDLYLMRSTGIDMDINYRYTMPPVKDSSRMDISLNNQFLQSFNLSSKQEANRLLLRIPVLQGLLDGKTDVSIPALKLGATNQLRFDFEYMNPMPGGSVDNCITFQPVQNHVVIGDDSTIDFSKYYHFIPMPDLRAFANAGFPFSRMADLSQTITVMPKAPNEAQMETLLNTVGFIGAQTGFPAINLTVTDDGSTIQGKDADIMIIGGIPDKLKDDKQIDLLVQATESWVKTPMRQTPFPGIVPDESDRAAETRSTLTSSGAMAAVIGFQSPYNDQRSVIALLADSPRGYEMLNDAVNDSGKRATMFGSVAVIRESGINSLRVGDVYYVGHLPWFERVWYALANHPILLAVLAAISVILLAWVLWRLLRIISRRRLNPDNE
notes: BcsB, periplasmic inner-membrane-anchored subunit of the E. coli cellulose synthase complex; In the BcsB-BcsC fusion made from the same plasmid the BcsB part is residues 55-779; also called Ec BcsB; not shown: Strep-tag II, N-terminal, kept
B2: Escherichia coli pEtN transferase BcsG, FLAG-tagged (enzyme, UniProt P37659 1-559, looked up)
chain: MTQFTQNTAMPSSLWQYWRGLSGWNFYFLVKFGLLWAGYLNFHPLLNLVFAAFLLMPLPRYSLHRLRHWIALPIGFALFWHDTWLPGPESIMSQGSQVAGFSTDYLIDLVTRFINWQMIGAIFVLLVAWLFLSQWIRITVFVVAILLWLNVLTLAGPSFSLWPAGQPTTTVTTTGGNAAATVAATGGAPVVGDMPAQTAPPTTANLNAWLNNFYNAEAKRKSTFPSSLPADAQPFELLVINICSLSWSDIEAAGLMSHPLWSHFDIEFKNFNSATSYSGPAAIRLLRASCGQTSHTNLYQPANNDCYLFDNLSKLGFTQHLMMGHNGQFGGFLKEVRENGGMQSELMDQTNLPVILLGFDGSPVYDDTAVLNRWLDVTEKDKNSRSATFYNTLPLHDGNHYPGVSKTADYKARAQKFFDELDAFFTELEKSGRKVMVVVVPEHGGALKGDRMQVSGLRDIPSPSITDVPVGVKFFGMKAPHQGAPIVIEQPSSFLAISDLVVRVLDGKIFTEDNVDWKKLTSGLPQTAPVSENSNAVVIQYQDKPYVRLNGGDWVPYPQ
notes: present as the full-length enzyme in the analysed sample; End of the FLAG tag read from the plasmid's name (G-FLAG); also called Ec BcsG; source: E. coli C43 (DE3), co-expressed with the other Bcs components or with the BcsA chimera, Rs BcsB and BcsF; co-purified; not shown: FLAG, C-terminal, kept
B3: Escherichia coli cellulase BcsZ (enzyme)
chain: ACTWPAWEQFKKDYISQEGRVIDPSDARKITTSEGQSYGMFSALAANDRAAFDNILDWTQNNLAQGSLKERLPAWLWGKKENSKWEVLDSNSASDGDVWMAWSLLEAGRLWKEQRYTDIGSALLKRIAREEVVTVPGLGSMLLPGKVGFAEDNSWRFNPSYLPPTLAQYFTRFGAPWTTLRETNQRLLLETAPKGFSPDWVRYEKDKGWQLKAEKTLISSYDAIRVYMWVGMMPDSDPQKARMLNRFKPMATFTEKNGYPPEKVDVATGKAQGKGPVGFSAAMLPFLQNRDAQAVQRQRVADNFPGSDAYYNYVLTLFGQGWDQHRFRFSTKGELLPDWGQECANSH
notes: End of the His tag read from the plasmid's name; also called Ec BcsZ
B4: BcsB-BcsC fusion: BcsC TPR#1–4 fused to the N-terminus of Escherichia coli BcsB (other)
chain: VEAAPTAQQQLLEQVRLGEATHREDLVQQSLYRLELIDPNNPDVVAARFRSLLRQGDIDGAQKQLDRLSQLAPSSNAYKSSRTTMLLSTPDGRQALQQARLQATTGHAEEAVASYNKLFNGAPPEGDIAVEYWSTVAKIPARRGEAINQLKRINADAPGGSGSGSGVQGADAPVVAQNGPSRDVKLTFAQIAPPPGSMVLRGINPNGSIEFGMRSDEVVTKAMLNLEYTPSPSLLPVQSQLKVYLNDELMGVLPVTKEQLGKKTLAQMPINPLFISDFNRVRLEFVGHYQDVCEKPASTTLWLDVGRSSGLDLTYQTLNVKNDLSHFPVPFFDPSDNRTNTLPMVFAGAPDVGLQQASAIVASWFGSRSGWRGQNFPVLYNQLPDRNAIVFATNDKRPDFLRDHPAVKAPVIEMINHPQNPYVKLLVVFGRDDKDLLQAAKGIAQGNILFRGESVVVNEVKPLLPRKPYDAPNWVRTDRPVTFGELKTYEEQLQSSGLEPAAINVSLNLPPDLYLMRSTGIDMDINYRYTMPPVKDSSRMDISLNNQFLQSFNLSSKQEANRLLLRIPVLQGLLDGKTDVSIPALKLGATNQLRFDFEYMNPMPGGSVDNCITFQPVQNHVVIGDDSTIDFSKYYHFIPMPDLRAFANAGFPFSRMADLSQTITVMPKAPNEAQMETLLNTVGFIGAQTGFPAINLTVTDDGSTIQGKDADIMIIGGIPDKLKDDKQIDLLVQATESWVKTPMRQTPFPGIVPDESDRAAETRSTLTSSGAMAAVIGFQSPYNDQRSVIALLADSPRGYEMLNDAVNDSGKRATMFGSVAVIRESGINSLRVGDVYYVGHLPWFERVWYALANHPILLAVLAAISVILLAWVLWRLLRIISRRRLNPDNE
notes: N-terminal four TPRs of E. coli BcsC (TPR#1-4), residues 21-179; linker; E. coli BcsB, residues 55-779; The best map came from a tetrameric BcsB assembly; a fully assembled complex was also seen; also called nSS-Strep-TPR(#1-4)-(GS)3-B; engineered BcsB-BcsC fusion; source: E. coli C43, co-expressed with all other Bcs components, co-purified (Ni-NTA, Strep-Tactin, SEC), in detergent; not shown: …
B5: Escherichia coli BcsC TPR#1–4 (residues 21–179), as it stands in the BcsB-BcsC fusion (domain or fragment, UniProt P37650 21-179, looked up)
chain: VEAAPTAQQQLLEQVRLGEATHREDLVQQSLYRLELIDPNNPDVVAARFRSLLRQGDIDGAQKQLDRLSQLAPSSNAYKSSRTTMLLSTPDGRQALQQARLQATTGHAEEAVASYNKLFNGAPPEGDIAVEYWSTVAKIPARRGEAINQLKRINADAPG
notes: N-terminal four TPRs of E. coli BcsC (TPR#1-4), residues 21-179; Joined on one chain with BcsB 55-779 through a GSGSGS linker (molecule m11); written apart for the BcsB-BcsC pair of the structure; also called BcsC's TPRs#1–4; BcsC N-terminal TPRs; source: E. coli C43, as part of the BcsB-BcsC fusion chain, co-purified with the Bcs complex; not shown: Strep-tag II, N-terminal, kept
B6: periplasmic domain of Escherichia coli BcsC (TPR#1–18; residues 24–709) (domain or fragment, UniProt P37650 24-709, looked up)
chain: APTAQQQLLEQVRLGEATHREDLVQQSLYRLELIDPNNPDVVAARFRSLLRQGDIDGAQKQLDRLSQLAPSSNAYKSSRTTMLLSTPDGRQALQQARLQATTGHAEEAVASYNKLFNGAPPEGDIAVEYWSTVAKIPARRGEAINQLKRINADAPGNTGLQNNLALLLFSSDRRDEGFAVLEQMAKSNAGREGASKIWYGQIKDMPVSDASVSALKKYLSIFSDGDSVAAAQSQLAEQQKQLADPAFRARAQGLAAVDSGMAGKAIPELQQAVRANPKDSEALGALGQAYSQKGDRANAVANLEKALALDPHSSNNDKWNSLLKVNRYWLAIQQGDAALKANNPDRAERLFQQARNVDNTDSYAVLGLGDVAMARKDYPAAERYYQQTLRMDSGNTNAVRGLANIYRQQSPEKAEAFIASLSASQRRSIDDIERSLQNDRLAQQAEALENQGKWAQAAALQRQRLALDPGSVWITYRLSQDLWQAGQRSQADTLMRNLAQQKSNDPEQVYAYGLYLSGHDQDRAALAHINSLPRAQWNSNIQELVNRLQSDQVLETANRLRESGKEAEAEAMLRQQPPSTRIDLTLADWAQQRRDYTAARAAYQNVLTREPANADAILGLTEVDIAAGDKAAARSQLAKLPATDNASLNTQRRVALAQAQLGDTAAAQRTFNKLIPQAKSQPPSME
notes: BcsC periplasmic domain, TPR#1-18, residues 24-709, cloned into pET20b; also called BcsC's periplasmic domain; N-terminal 18 TPRs of BcsC; source: E. coli Rosetta 2, periplasmic extract, purified (Ni-NTA, SEC)

Series [1] concerns the molecule itself. The series is described as follows: cryo-EM structure; purified Ec Bcs inner membrane complex in MSP2N2 nanodiscs incubated with the separately purified periplasmic domain of BcsC (TPR#1-18) at a molar ratio of 1:5 for 1 h on ice; low-resolution map.
Series [2] concerns the molecule itself. The series is described as follows: cryo-EM structure; reprocessing of the previously published cryo-EM data (EMD-23267) of the co-expressed, co-purified Ec inner membrane-associated Bcs complex, focused on BcsA-BcsG; ~5.7 Å; AlphaFold2 model docked as rigid bodies.
Series [3] concerns the molecule itself. As to the kind of experiment: cryo-EM structure; BcsC incubated with purified BcsZ at a molar 1:1.5; single particle analysis, about 2.7 Å for BcsZ.
Series [4] deals with the molecule itself. The series is described as follows: cryo-EM structure; BcsC TPR#1-4 fused to the N-terminus of BcsB, co-expressed with all other Bcs components, purified in detergent, about 2.2 mg/mL; focused refinement of a tetrameric BcsB assembly, about 3.2 Å.
Series [5] concerns the target T1, Escherichia coli BcsB (residues …). The series is described as above. The note with it: both partners purified.
The series “Escherichia coli BcsB” has as its target B1. As to the kind of experiment: cryo-EM structure; purified Ec Bcs inner membrane complex in MSP2N2 nanodiscs incubated with the separately purified periplasmic domain of BcsC (TPR#1-18) at a molar ratio of 1:5 for 1 h on ice; low-resolution map. Conditions: both partners purified.

One may read the stoichiometry N as a count of units in the complex or per binding partner. Consider B1, for which the “stoichiometry N” value in series [1] stood at 6.
B2: the “stoichiometry N” value in series [2] was 3.
Take B3: the “stoichiometry N” value in series [3] was 4.
Take B4: in series [4], the “stoichiometry N” value stood at 4.
B5: the binding result in series [5] was “binds”.
Regarding B6, the binding result in the series with Escherichia coli BcsB is “binds”.
